Experimental data: patent US20210253666A1 (TCR2 THERAPEUTICS, published 2021)
Substitutions are numbered along the chain they refer to.

T1: hMUC16 peptide biotinylated either at C- or N-terminus (bio-hMUC16) (human, biotin at C- or N-terminus)
T1 construct: Captured on streptavidin-coated plates for panning and ELISA screening; also called human MUC16 peptide; MUC16 immunization peptide
T1 peptide: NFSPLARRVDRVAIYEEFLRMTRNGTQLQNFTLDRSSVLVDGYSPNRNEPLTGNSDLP

B1: Single domain anti-MUC16 R3MU63 (VHH)
VHH: QVQLQESGGGLVQAGDSLRLSCAASGRTVSSLFMGWFRRAPGKERELVAAISRYSLYTYYADSVKGRFTISADNAKNAVYLQMNSLKPEDTAVYYCASKLEYTSNDYDSWGQGTQVTVSS
notes: Tested as soluble nanobody in crude periplasmic extract; not shown: C-terminal HA tag and His6 tag of the pMECS GG vector
B2: Single domain anti-MUC16 R3MU147 (VHH)
VHH: B1 VHH with D16E
notes: as for B1
B3: Single domain anti-MUC16 R3MU150 (VHH)
VHH: B1 VHH with A14P, D16G
notes: as for B1
B4: single domain anti-MUC16 binder R3MU4 (VHH)
VHH: B1 VHH with D16G, R39Q
notes: as for B1
B5: Single domain anti-MUC16 R3MU29 (VHH)
VHH: B1 VHH with T28A
notes: as for B1
B6: Single domain anti-MUC16 R3MU119 (VHH)
VHH: QVQLQESGGGLVQPGDSMRLSCAAEGDSLDGYVVGWFRQAPGKERQGVSSISGDGSMRYVADSVKGRFTISRDNAKNTVYLQMIDLKPEDTGVYYCAADPPTWDYWGQGTQVTVSS
notes: as for B1

Target: T1, hMUC16 peptide biotinylated either at …
Test: ELISA, crude periplasmic extracts on biotinylated hMUC16 peptide captured on streptavidin-coated wells
Protocol: The Core 93GG library was panned on hMUC16 peptide […] (SEQ ID NO:92) biotinylated either at C- or N-terminus (bio-hMUC16) for 4 rounds. The bio-hMUC16 peptide was allowed to interact with streptavidin coated plates after which phages from the library were added to the plate. The enrichment for antigen-specific phages was assessed after each round of panning by comparing the number of phagemid particles eluted from antigen-coated wells with the number of phagemid particles eluted from negative control wells (coated with streptavidin and blocked but containing no peptide). […] No enrichment was observed after the 1st, 3rd and 4th round. In total, 380 colonies (190 from round 3, 190 from round 4) were randomly selected and analyzed by ELISA for the presence of antigen-specific nanobodies in their periplasmic extracts (ELISA using crude periplasmic extracts including soluble nanobodies). The peptides used for ELISA screening were the same as the ones used for panning, using blocked streptavidin-coated wells without peptide as negative control. Out of these 380 colonies, 34 colonies scored positive in this assay. Based on sequence data of the positive colonies, 6 different full length nanobodies were distinguished, belonging to 2 different CDR3 groups (B-cell lineages) (see Excel file). […] Nanobodies belonging to the same CDR3 group recognize the same epitope but their other characteristics (e.g. affinity, potency, stability, expression yield, etc.) can be different. Clones from these pannings bear the following code in their name: MU.

Binding result, binds:
B1
B2
B3
B4
B5
B6
